Measurements taken from patent publication US20230312741A1 (published 2023).
Where a chain is given by its changes, count along the chain named.

T1: CD73 mutant L159A/Y161A/K162A/V170A (human, UniProt P21589 27-549)
T1 construct: As m43; also called mutant 16
T1 chain: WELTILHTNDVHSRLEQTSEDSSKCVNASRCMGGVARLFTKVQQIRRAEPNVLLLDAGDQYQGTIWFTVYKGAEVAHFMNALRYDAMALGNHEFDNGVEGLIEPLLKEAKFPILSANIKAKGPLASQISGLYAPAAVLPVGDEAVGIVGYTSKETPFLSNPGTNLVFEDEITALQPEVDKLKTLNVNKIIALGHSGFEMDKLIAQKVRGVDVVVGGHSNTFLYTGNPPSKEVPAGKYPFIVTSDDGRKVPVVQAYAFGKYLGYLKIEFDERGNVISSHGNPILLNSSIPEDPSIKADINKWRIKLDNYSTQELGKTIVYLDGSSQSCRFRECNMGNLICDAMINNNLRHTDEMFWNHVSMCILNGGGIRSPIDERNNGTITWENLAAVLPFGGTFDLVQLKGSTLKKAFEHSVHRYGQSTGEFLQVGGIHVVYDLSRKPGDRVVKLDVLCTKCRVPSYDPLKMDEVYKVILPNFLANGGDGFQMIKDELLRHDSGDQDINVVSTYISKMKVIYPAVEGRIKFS

T2: CD73 mutant Y161A/K162A/V170A (human, UniProt P21589 27-549)
T2 construct: As m43; also called mutant 3
T2 chain: T1 chain with A133L

T3: CD73 mutant K136A/Y161A/K162A/V170A (human, UniProt P21589 27-549)
T3 construct: As m43; also called mutant 13
T3 chain: T1 chain with K110A, A133L

T4: human CD73 expressed on the cell surface (human, UniProt P21589 27-549)
T4 sequence: T1 chain with A133L, A135Y, A136K, A144V

T5: soluble CD73 protein (ACRO, CD3-H52H7) (human, UniProt P21589 27-547)
T5 sequence (looked up): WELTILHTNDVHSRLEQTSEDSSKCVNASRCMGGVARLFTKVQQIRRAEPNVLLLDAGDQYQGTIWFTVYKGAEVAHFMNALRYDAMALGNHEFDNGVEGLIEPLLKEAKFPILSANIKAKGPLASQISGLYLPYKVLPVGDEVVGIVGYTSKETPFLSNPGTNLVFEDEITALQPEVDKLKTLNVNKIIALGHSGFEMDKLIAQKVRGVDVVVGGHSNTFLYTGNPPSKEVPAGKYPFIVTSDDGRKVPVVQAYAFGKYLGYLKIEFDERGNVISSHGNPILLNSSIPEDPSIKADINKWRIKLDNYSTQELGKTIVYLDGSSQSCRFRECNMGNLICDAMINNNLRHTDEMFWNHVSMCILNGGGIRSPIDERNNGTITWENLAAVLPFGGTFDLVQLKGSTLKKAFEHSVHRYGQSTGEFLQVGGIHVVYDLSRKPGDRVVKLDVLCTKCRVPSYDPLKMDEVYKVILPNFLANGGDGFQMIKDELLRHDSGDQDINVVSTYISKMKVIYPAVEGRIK

B1: ADI-37505 (antibody, human IgG4 S228P, kappa, F234A L235A, V domains shown)
VH: QVQLVESGGGLVQPGGSLRLSCAASGFTFSNYAMTWVRQAPGKGLEWVSAISGRGTATYYADSVKGRFTISRDNSKNTLYLQMNSLRAEDTAVYYCARGGPYGSGSYWDTFDYWGQGTLVTVSS
VL: EIVMTQSPATLSVSPGERATLSCRASQSVSSNLAWYQQKPGQAPRLLIYGASTRATGIPARFSGSGSGTEFTLTISSLQSEDFAVYYCQQYTNHYTFGGGTKVEIKR
B2: ADI-37506 (antibody, human IgG4 S228P, kappa, F234A L235A, V domains shown)
VH: B1 VH with Q1E, V5L, Y32L, T35S, G55A, A57S
VL: B1 VL

Legend:
[1] = biological target: T1, CD73 mutant L159A/Y161A/K162A/V170A; test: flow cytometry, GS-CHO cells with CD73 mutant
Description: (§1) After washing three more times with PBS, the cells were resuspended in 100 ul PBS. (4) The average fluorescence value was measured in PE channel by flow cytometer. The Log₁₀ of antibody concentration was used as the horizontal coordinate and the average fluorescence value of the PE channel was used as the vertical coordinate to plot a curve, and the EC50 and the peak of the curve were compared.

[2] = biological target: T2, CD73 mutant Y161A/K162A/V170A; test: flow cytometry, GS-CHO cells with CD73 mutant
Description: as §1

[3] = biological target: T3, CD73 mutant K136A/Y161A/K162A/V170A; test: flow cytometry, GS-CHO cells with CD73 mutant
Description: as §1

[4] = biological target: T4, human CD73 expressed on the cell surface; test: cell-based or functional assay
[5] = biological target: T5, soluble CD73 protein (ACRO, CD3-H52H7); test: cell-based or functional assay
[6] = biological target: T4, human CD73 expressed on the cell surface; test: cell-based or functional assay; remark: listed apart in the source

Binder	binding result [1]	binding result [2]	binding result [3]	IC50, enzymatic activity of CD73 on NCI-H292 cells [4] [nM]	IC50, enzymatic activity of soluble CD73 at 1 hour [5] [nM]	IC50 for inhibiting the enzymatic activity of CD73 (Calu-6 cells) [6] [µg/mL]
B1	binds	binds	binds	1.47	0.0718	0.076
B2	binds	binds	binds	1.27	0.0897	0.073
